Results taken from patent US7657385B2.

Molecular target: CD81-LEL (large extracellular loop of human CD81, amino acids 113-201) (human)
Assay: X-ray crystal structure; dimer in the asymmetric unit

**Q.** “CD81-LEL (large extracellular loop of human CD81, amino acids 113-201) (receptor)” was tested. Which subunit interface did it give?
**A.** 986 Å^2
